The target in assay [1] is T1, RL2 (recombinant Lactaptin 2), the recombinant fragment of human κ-Casein (human), P07498.
T1 chain: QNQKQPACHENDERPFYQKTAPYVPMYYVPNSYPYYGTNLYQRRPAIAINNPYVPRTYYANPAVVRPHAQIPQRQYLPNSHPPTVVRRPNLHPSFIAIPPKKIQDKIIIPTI
Description: cellular fractionation, SDS-PAGE and Western Blot; MDA-MB-231 cells stimulated with 100 µg/mL RL2; fractions for cytoplasm, nucleus and mitochondria; RL2 monomer and dimer bands detected by Western Blot. Particulars: remark: other sources report otherwise.

For assay [2], the target named is T1, RL2 (recombinant Lactaptin 2), the …. Description: SDS-PAGE and Western Blot of cell lysates; MDA-MB-231 cells treated with 200 µg/mL RL2 for indicated times, extracellular RL2 washed off; RL2 monomer and dimer bands detected in lysates with anti-κ-Casein antibody; SDS-PAGE under reducing conditions. To be noted: remark: other sources report otherwise. (In general: In western blotting, separated proteins are transferred to a membrane and probed.)

Data on 1 molecule can be found in PMC7352597.

In general, stoichiometry N refers to a count of units in the complex or per binding partner.

B1: RL2 (recombinant Lactaptin 2), the recombinant fragment of human κ-Casein, P07498 23-134 (domain or fragment)
chain: QNQKQPACHENDERPFYQKTAPYVPMYYVPNSYPYYGTNLYQRRPAIAINNPYVPRTYYANPAVVRPHAQIPQRQYLPNSHPPTVVRRPNLHPSFIAIPPKKIQDKIIIPTI
In the case of B1, the stoichiometry N in assay [1] and in assay [2] was 2 in each case.
